Source: patent US10662241B1, “HER3 antigen-binding molecules” (Hummingbird Bioscience Holdings Pte. Ltd., priority 2019, dated 2020)
“Also recorded” adds a separate entry of the source.

How the values were obtained:
[1] = tested on: HEK293 cells engineered to express HER3; assay: Antibody internalisation, pHrodo imaging, HEK293 HER3; assay type: cell-based; conditions: 120 nM, 24 hours, HEK293 overexpressing HER3
Method: (§1) Briefly, 100,000 HEK293 cells engineered to express HER3, HCC95, N87 or OVCAR8 cells were seeded in wells of 96-well tissue culture plates and cultured overnight at 37° C. in 5% CO2. […] The cells in culture were imaged every 30 min for 24 hours, in 4 different fields of each well. The maximum signal intensity in the FITC channel of each field was quantified at 24 hours.

[2] = tested on: OVCAR8 cells; assay: Antibody internalisation, pHrodo imaging, OVCAR8; assay type: cell-based; conditions: 120 nM, 24 hours
Method: as §1

[3] = molecular target: T1, human HER3 (Homo sapiens, UniProt P21860); assay: Immunohistochemistry of frozen human tissue sections; set-up: from tissue; host or cells: arrays of frozen tissue sections; conditions: mIgG2a format
Method: Anti-HER3 antibody 10D1F in mIgG2a format was evaluated for its ability to be used in immunohistochemistry for the detection of human HER3 protein.
Processing of sections was performed using Bond reagents (Leica Biosystems). Arrays of commercially-available frozen tissue sections were obtained. Slides were dried in a desiccator for 10 min and then subjected to the following treatments, with water washes and/or TBS-T rinses between steps: (i) fixation by treatment with 100% acetone for 10 min at room temperature; (ii) endogenous peroxidase blocking by treatment with 3% (v/v) H2O2 for 15 min at room temperature; (iii) blocking by treatment with 10% goat serum for 30 min at room temperature, (iv) incubation with 10D1F-mIgG2a at 1:250 dilution of a 6.2 mg/ml solution overnight at 4° C., (v) incubation with HRP-polymer conjugated goat anti-mouse antibody for 30 min at room temperature, and (vi) development with Bond Mixed DAB Refine for 5 min at room temperature, followed by rinsing with deionised water and 1× Bond Wash to stop the reaction.
Slides were then dehydrated, mounted in synthetic mounting media and scanned with high resolution.

[4] = molecular target: T2, mouse HER3 (Mus musculus, UniProt Q61526); assay: ELISA cross-reactivity, mouse HER3; assay type: binding
T2 construct: purchased Sino Biological Inc., China
Method: (§2) ELISAs were used to determine the binding specificity of the antibodies. The antibodies were analysed for binding to human HER3 polypeptide, as well as respective mouse, rat and monkey homologues of HER3 (Sino Biological Inc., China). The antibodies were also analysed for their ability to bind to human EGFR and human HER2 (Sino Biological Inc., China).
(§3) ELISAs were carried out according to standard protocols. Briefly, 96-well plates (Nunc, Denmark) were coated with 0.1 μg/ml of target polypeptide in phosphate-buffered saline (PBS) for 16 h at 4° C. After blocking for 1 h with 1% BSA in […] (TBS) at room temperature, the anti-HER3 antibody was serially diluted with the highest concentration being 10 μg/ml, and added to the plate, Post 1 h incubation at room temperature, plates were washed three times with TBS containing 0.05% Tween 20 (TBS-T) and were then incubated with a HRP-conjugated anti-His antibody (Life Technologies, Inc., USA) for 1 h at room temperature. After washing, plates were developed with colorimetric detection substrate 3,3′,5,5′-tetramethylbenzidine (Turbo-TMB; Pierce, USA) for 10 min. The reaction was stopped with 2M H2SO4, and OD was measured at 450 nm. […]

[5] = molecular target: T3, rat HER3 (Rattus norvegicus, UniProt Q62799); assay: ELISA cross-reactivity, rat HER3; assay type: binding
T3 construct: purchased Sino Biological Inc., China
Method: as §2, §3

[6] = tested on: cynomolgus macaque HER3; assay: ELISA cross-reactivity, cynomolgus macaque HER3; assay type: binding
Method: as §2, §3

[7] = molecular target: T4, human EGFR (Homo sapiens, UniProt P00533); assay: ELISA specificity, human EGFR; assay type: binding; conditions: antibody up to 10 μg/ml
T4 construct: purchased Sino Biological Inc., China
Method: as §2
(§4) ELISAs were carried out according to standard protocols. Briefly, 96-well plates (Nunc, Denmark) were coated with 0.1 μg/ml of target polypeptide in phosphate-buffered saline (PBS) for 16 h at 4° C. After blocking for 1 h with 1% BSA in […] (TBS) at room temperature, the anti-HER3 antibody was serially diluted with the highest concentration being 10 μg/ml, and added to the plate, Post 1 h incubation at room temperature, plates were washed three times with TBS containing 0.05% Tween 20 (TBS-T) and were then incubated with a HRP-conjugated anti-His antibody (Life Technologies, Inc., USA) for 1 h at room temperature. […] The reaction was stopped with 2M H2SO4, and OD was measured at 450 nm.
(§5) The antibodies were analysed for their ability to bind to human HER3 polypeptide as well as human HER1 (EGFR) and human HER2 (Sino Biological Inc., China). […]
(§6) ELISAs were carried out according to standard protocols. […] The reaction was stopped with 2M H2SO4, and OD was measured at 450 nm.

[8] = molecular target: T1, human HER3; assay: BLI competition between anti-HER3 antibodies for binding to HER3
Method: Bio-Layer Interferometry (BLI) experiments were performed using the Octet QK384 system (ForteBio), anti-Penta-HIS (HIS1K) coated biosensor tips (ForteBio, USA) were used to capture His-tagged human HER3 (75 nM; 300 s). […] The variable region of LJM-716 antibody was cloned in the PDZ vector having human IgG1 and IgKappa Fc backbone.
BLI experiments were performed as described in Example 3.5 with one alteration: 400 nM of competing antibodies were used. The variable regions of M-05-74 and M-08-11 antibodies were cloned in the PDZ vector having human IgG1 and IgKappa Fc backbone.

[9] = tested on: HER3-mediated signalling (pHER3, pAKT); assay: Inhibition of HER3-mediated signalling in vitro, phospho-western blot; assay type: cell-based; conditions: N87 and FaDu cells, 50 μg/ml 4 hrs, NRG 100 ng/ml
Method: Briefly, N87 and FaDu cells were seeded in wells of a 6 well plate with 10% serum at 37° C., 5% CO2. After 16 hrs, cells were starved by culture overnight in 1% FBS cell culture medium (to reduce signalling elicited by growth factors in the serum). […] Proteins were then extracted, quantified using standard Bradford protein assay, fractionated by SDS-PAGE, and transferred to nitrocellulose membranes. The membranes were then blocked and immunoblotted with the following antibodies overnight at 4° C. anti-pHER3, anti-pAKT, pan anti-HER3, pan anti-AKT and anti-beta-actin. The blots were visualized via Bio-Rad Clarity Western ECL substrate, and bands were quantified using densiometric analysis; data were normalized to beta actin controls.
N87, FaDu or OvCAR8 cells were seeded in wells in a 6 well plate with 10% serum overnight at 37° C. with 5% CO2. […] Antibodies tested were: 10D1F.FcA (10D1), Seribantumab (SBT), Elegemtumab (LJM), Pertuzumab (PTM), Cetuximab (CTX), and Trastuzumab (TZ).
Before harvesting, cells were stimulated with 100 ng/ml of NRG1, Protein extracted from cell lines were quantified using standard Bradford protein assay, Protein samples (50 μg) were fractionated by SDS-PAGE and transferred to nitrocellulose membrane. […] The blots were quantified using densiometric analysis and data was normalised to beta actin. […]

[10] = tested on: PI3K/AKT/mTOR and MAPK signalling; assay: Phosphoprotein Antibody Array, FaDu cells; assay type: cell-based; conditions: 50 μg/ml 4 hrs, NRG 100 ng/ml
Method: In further experiments the inventors investigated the intracellular signalling pathways affected by anti-HER3 antibody-mediated inhibition of HER3.
FaDu cells were seeded in wells of a 6 well plate with 10% serum at 37° C., 5% CO2. After 16 hrs, cells were starved by culture overnight in 1% FBS cell culture medium. […] Proteins were then extracted, quantified using standard Bradford protein assay, and incubated overnight with pre-blocked Phosphoprotein Antibody Array membrane (Ray Biotech) at 4° C., The membrane was then washed with washing buffer and incubated with detection antibody cocktail for 2 hrs at room temperature, followed by washing and incubation with HRP-Conjugated anti-IgG. After 2 hrs the membrane was washed and probed using the kit detection buffer. Images were captured with Syngene Gbox imaging system, the intensity of each dot/phosphoprotein was measured and percent inhibition was calculated by comparison with intensity measured for cells treated in the same way in the absence of the antibody.

[11] = tested on: N87 cells; assay: CCK-8 proliferation assay, N87 cells; assay type: cell-based; conditions: N87, 5 days, from 100 μg/ml
Method: (§7) Cell proliferation was measuring using the CCK-8 proliferation assay (Dojindo, Japan) after a period of 5 days, in accordance with the manufacturers instructions, Briefly 1×CCK-8 solution was added to each well followed by incubation for 2 h at 37° C. The OD was then measured at 450 nm.

[12] = tested on: FaDu cells; assay: CCK-8 proliferation assay, FaDu cells; assay type: cell-based; conditions: 5 days, from 100 μg/ml
Method: as §7

[13] = molecular target: T5, human HER2 (Homo sapiens, UniProt P04626); assay: ELISA specificity, human HER2; assay type: binding; conditions: antibody up to 10 μg/ml
T5 construct: purchased Sino Biological Inc., China
Method: as §2, §4, §5, §6

T3 sequence (Q62799 20-1339): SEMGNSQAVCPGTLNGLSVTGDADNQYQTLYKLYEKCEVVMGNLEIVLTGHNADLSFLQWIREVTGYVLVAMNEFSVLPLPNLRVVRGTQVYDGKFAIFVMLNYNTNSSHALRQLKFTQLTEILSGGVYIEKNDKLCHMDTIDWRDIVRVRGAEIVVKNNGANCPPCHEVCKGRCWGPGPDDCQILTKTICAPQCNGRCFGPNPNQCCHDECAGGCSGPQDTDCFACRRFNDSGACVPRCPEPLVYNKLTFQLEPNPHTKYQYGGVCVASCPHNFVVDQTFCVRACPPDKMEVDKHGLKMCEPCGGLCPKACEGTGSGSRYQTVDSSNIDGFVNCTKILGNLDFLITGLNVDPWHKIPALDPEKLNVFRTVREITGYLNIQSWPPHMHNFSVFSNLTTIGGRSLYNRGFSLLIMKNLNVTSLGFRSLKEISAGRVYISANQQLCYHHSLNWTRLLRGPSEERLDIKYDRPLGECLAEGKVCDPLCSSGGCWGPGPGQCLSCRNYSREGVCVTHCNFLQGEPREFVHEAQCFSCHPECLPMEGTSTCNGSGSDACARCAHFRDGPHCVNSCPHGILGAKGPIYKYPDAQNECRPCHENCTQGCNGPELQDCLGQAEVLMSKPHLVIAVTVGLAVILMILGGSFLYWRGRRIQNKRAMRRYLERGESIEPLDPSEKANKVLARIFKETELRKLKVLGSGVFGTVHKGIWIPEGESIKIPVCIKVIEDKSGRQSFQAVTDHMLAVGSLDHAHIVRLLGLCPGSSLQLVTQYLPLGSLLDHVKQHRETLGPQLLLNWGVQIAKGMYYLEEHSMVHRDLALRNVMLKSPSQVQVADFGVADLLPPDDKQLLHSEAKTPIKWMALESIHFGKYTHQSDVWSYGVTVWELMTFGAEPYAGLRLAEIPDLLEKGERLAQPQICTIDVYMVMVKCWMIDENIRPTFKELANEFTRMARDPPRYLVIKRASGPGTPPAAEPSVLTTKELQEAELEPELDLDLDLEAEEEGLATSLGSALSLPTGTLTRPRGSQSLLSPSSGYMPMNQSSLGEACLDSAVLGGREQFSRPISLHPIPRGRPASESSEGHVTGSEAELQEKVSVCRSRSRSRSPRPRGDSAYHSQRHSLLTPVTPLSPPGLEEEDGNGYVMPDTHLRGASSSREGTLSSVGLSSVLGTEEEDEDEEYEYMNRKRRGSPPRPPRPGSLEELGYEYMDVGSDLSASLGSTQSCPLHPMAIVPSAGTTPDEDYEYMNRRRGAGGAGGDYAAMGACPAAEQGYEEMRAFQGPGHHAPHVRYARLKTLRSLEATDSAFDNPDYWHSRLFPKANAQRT
T2 sequence (Q61526 20-1339): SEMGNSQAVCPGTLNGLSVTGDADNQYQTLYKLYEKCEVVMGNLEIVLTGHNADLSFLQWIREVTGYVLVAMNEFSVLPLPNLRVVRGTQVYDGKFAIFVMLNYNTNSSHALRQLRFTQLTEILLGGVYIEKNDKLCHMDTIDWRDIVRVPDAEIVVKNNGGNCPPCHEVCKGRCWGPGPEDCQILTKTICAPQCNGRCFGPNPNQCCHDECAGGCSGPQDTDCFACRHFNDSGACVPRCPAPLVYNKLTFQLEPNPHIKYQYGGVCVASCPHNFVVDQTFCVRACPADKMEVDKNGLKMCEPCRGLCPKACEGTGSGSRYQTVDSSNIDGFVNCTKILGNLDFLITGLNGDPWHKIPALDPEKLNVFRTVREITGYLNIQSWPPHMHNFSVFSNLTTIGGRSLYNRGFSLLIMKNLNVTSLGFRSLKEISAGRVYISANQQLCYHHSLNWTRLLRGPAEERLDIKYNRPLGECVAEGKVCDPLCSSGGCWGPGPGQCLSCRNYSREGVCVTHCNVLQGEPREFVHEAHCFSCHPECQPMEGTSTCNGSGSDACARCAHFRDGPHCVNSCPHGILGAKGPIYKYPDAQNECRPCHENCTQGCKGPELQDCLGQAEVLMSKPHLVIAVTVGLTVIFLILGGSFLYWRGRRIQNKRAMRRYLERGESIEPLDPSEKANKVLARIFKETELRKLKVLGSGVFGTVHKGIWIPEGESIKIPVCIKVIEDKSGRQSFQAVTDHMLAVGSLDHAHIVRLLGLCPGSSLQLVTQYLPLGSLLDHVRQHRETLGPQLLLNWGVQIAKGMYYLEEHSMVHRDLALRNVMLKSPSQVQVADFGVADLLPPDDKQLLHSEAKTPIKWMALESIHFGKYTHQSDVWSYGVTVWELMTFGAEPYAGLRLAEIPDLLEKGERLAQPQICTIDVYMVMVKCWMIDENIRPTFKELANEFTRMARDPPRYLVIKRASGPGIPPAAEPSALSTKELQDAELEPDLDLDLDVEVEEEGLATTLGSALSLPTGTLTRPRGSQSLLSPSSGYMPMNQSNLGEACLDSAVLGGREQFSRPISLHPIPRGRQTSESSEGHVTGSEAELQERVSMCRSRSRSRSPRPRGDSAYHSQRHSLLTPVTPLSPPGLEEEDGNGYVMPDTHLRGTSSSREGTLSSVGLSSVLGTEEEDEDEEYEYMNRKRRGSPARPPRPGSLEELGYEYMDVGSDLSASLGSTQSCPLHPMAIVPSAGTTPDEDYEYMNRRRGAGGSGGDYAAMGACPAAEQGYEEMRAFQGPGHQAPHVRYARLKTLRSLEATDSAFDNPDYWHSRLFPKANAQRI

LJM716: anti-HER3 antibody clone LJM716 (Garner et al., Cancer Res (2013) 73: 6024-6035), also referred to as Elgemtumab [reference compound]
Internalisation [1]: significant internalization | Internalisation [2]: Modest to moderate internalization

B1: 10D1F: Anti-HER3 antibody 10D1F (VH SEQ ID NO:36, VL SEQ ID NO:83) in mIgG2a format, used for immunohistochemistry (antibody, V domains shown)
VH: QVQLQESGPGLVKPSQTLSLTCTVSGYSITSGYSWHWIRQHPGKGLEWIGSIRYSGGTDYNPSLKSLVTISADTSKNQFSLKLSSVTAADTAVYYCARMTTAPWYPFDYWGQGTTVTVSS
VL: DIQMTQSPSSVSASVGDRVTITCKASQIVGSNVAWYQQKPGKAPEPLIYSASYLYSGVPSRFSGSGSGTDFTLTISSLQPEDFATYYCQQYSSHPLTFGQGTKLEIK
modifications: mouse IgG2a constant regions; 10D1_c89 heavy chain variable region; 10D1_c89 light chain variable region
Staining of malignant and normal human tissue sections [3]: preferentially stained malignant human tissue sections, with low cross-reactivity to normal tissue

B2: 10D1: anti-HER3 antibody clone, parental mouse; VH = SEQ ID NO:24, VL = SEQ ID NO:74 (antibody, V domains shown)
VH: DVQLQESGPDLVKPSQSLSLTCTVTGYSITSGYSWHWIRQFPGNKLEWMGSIHYSGGTNYNPSLKSRISITRDTSKNQFFLQLNSVTTEDTATYFCARMTTAPRYPFDYWGQGTTLTVSS
VL: DIVMTQSQKFMSTSVGDRVSVTCKASQIVGSNVAWYQQKPGQSPKPLIYSASYRYSGVPDRFTASGSGTDFTLTITNVQSEDLAEYFCQQYSSHPLTFGAGTKLELK
modifications: 10D1 heavy chain variable region; 10D1 light chain variable region
Cross-reactivity with mouse HER3 [4]: substantial cross-reactivity | Cross-reactivity with rat HER3 [5]: substantial cross-reactivity | Cross-reactivity with cynomolgus macaque HER3 [6]: substantial cross-reactivity | Binding to human EGFR [7]: not to bind | Competition with MM-121 and/or LJM-716 for binding to HER3 [8]: not to compete with MM-121 and/or LJM-716 for binding to HER3; also recorded: distinct and topologically distant epitope of HER3 than MM-121 and/or LJM-716 | Inhibition of HER3 phosphorylation and downstream signalling [9]: inhibit HER3 phosphorylation and downstream signalling | Inhibition of intracellular signalling pathways [10]: inhibit PI3K/AKT/mTOR and MAPK signalling | Inhibition of cell proliferation [11]: dose-dependent inhibition of cell proliferation | Inhibition of cell proliferation [12]: dose-dependent inhibition of cell proliferation

B3: 4-35-B2: anti-HER3 antibody clone; VH = SEQ ID NO:127, VL = SEQ ID NO:135 (antibody, V domains shown)
VH: EIQLQQSGPELVKPGASVKVSCKASGYSFTDYNMYWVKQSHGKSLEWIGHINPYNGGTTYNQKFKGRATLTVDKSSSTAFMHLNSLTSEDSAVYFCVSLRWGAMDYWGQGTSVTVSS
VL: QIVLTQSPALMSASPGEKVTMTCSASSSVSYMYWYQQKPRSSPKPWIYLTSNLASGVPARFSGSGSGTSYSLTISSMEAEDAATYYCQQWNSNPYTFGGGTKLEIK
modifications: 4-35-B2 heavy chain variable region; 4-35-B2 light chain variable region
Cross-reactivity with mouse HER3 [4]: substantial cross-reactivity | Cross-reactivity with rat HER3 [5]: substantial cross-reactivity | Cross-reactivity with cynomolgus macaque HER3 [6]: substantial cross-reactivity | Binding to human EGFR [7]: bind to human HER2 and human EGFR | Binding to human HER2 [13]: bind to human HER2 and human EGFR
